Results: publication PMC9709245, “The stem region of α1,6-fucosyltransferase FUT8 is required for multimer formation but not catalytic activity” (The Journal of Biological Chemistry, 2022)
Substitutions are numbered along the chain they refer to. Numbers in names are those of the source.

B1: FUT8Δstem-GSx40 (enzyme, human)
chain: MRPWTGSWRWIMLILFAWGTLLFYIGGHLGSGSGSGSGSGSGSGSGSGSGSGSGSGSGSGSGSGSGSGSGSGSGSGSGSGSGSGSGSGSGSGSGSGSGSGSGSGSGSGSGKDHEILRRRIENGAKELWFFLQSELKKLKNLEGNELQRHADEFLLDLGHHERSIMTDLYYLSQTDGAGDWREKEAKDLTELVQRRITYLQNPKDCSKAKKLVCNINKGCGYGCQLHHVVYCFMIAYGTQRTLILESQNWRYATGGWETVFRPVSETCTDRSGISTGHWSGEVKDKNVQVVELPIVDSLHPRPPYLPLAVPEDLADRLVRVHGDPAVWWVSQFVKYLIRPQPWLEKEIEEATKKLGFKHPVIGVHVRRTDKVGTEAAFHPIEEYMVHVEEHFQLLARRMQVDKKRVYLATDDPSLLKEAKTKYPNYEFISDNSISWSAGLHNRYTENSLRGVILDIHFLSQADFLVCTFSSQVCRVAYEIMQTLHPDASANFHSLDDIYYFGGQNAHNQIAIYAHQPRTADEIPMEPGDIIGVAGNHWDGYSKGVNRKLGRTGLYPSYKVREKIETVKYPTYPEAEK
notes: human FUT8, start codon to the 87th base of the cDNA; the stem region Val30-Leu108 is replaced; glycine-serine repeat of 80 amino acids; human FUT8, 325th to 1725th base of the cDNA (coiled-coil domain to the C terminus); Anti-Myc blots show two bands (full size and about 50 kDa); also called Myc-tagged FUT8Δstem-GSx40; source: HEK293 FUT8KO, transfected, in lysate; not shown: Myc, C-terminal, …
B2: FUT8Δstem-GSx22 (enzyme, human)
chain: MRPWTGSWRWIMLILFAWGTLLFYIGGHLGSGSGSGSGSGSGSGSGSGSGSGSGSGSGSGSGSGSGSGSGSGSGKDHEILRRRIENGAKELWFFLQSELKKLKNLEGNELQRHADEFLLDLGHHERSIMTDLYYLSQTDGAGDWREKEAKDLTELVQRRITYLQNPKDCSKAKKLVCNINKGCGYGCQLHHVVYCFMIAYGTQRTLILESQNWRYATGGWETVFRPVSETCTDRSGISTGHWSGEVKDKNVQVVELPIVDSLHPRPPYLPLAVPEDLADRLVRVHGDPAVWWVSQFVKYLIRPQPWLEKEIEEATKKLGFKHPVIGVHVRRTDKVGTEAAFHPIEEYMVHVEEHFQLLARRMQVDKKRVYLATDDPSLLKEAKTKYPNYEFISDNSISWSAGLHNRYTENSLRGVILDIHFLSQADFLVCTFSSQVCRVAYEIMQTLHPDASANFHSLDDIYYFGGQNAHNQIAIYAHQPRTADEIPMEPGDIIGVAGNHWDGYSKGVNRKLGRTGLYPSYKVREKIETVKYPTYPEAEK
notes: human FUT8, start codon to the 87th base of the cDNA; the stem region Val30-Leu108 is replaced; glycine-serine repeat of 44 amino acids; human FUT8, 325th to 1725th base of the cDNA (coiled-coil domain to the C terminus); Anti-Myc blots show two bands (full size and about 50 kDa); also called Myc-tagged FUT8Δstem-GSx22; source: HEK293 FUT8KO, transfected, in lysate; not shown: Myc, C-terminal, …
B3: FUT8Δhelix 1 (enzyme, human, UniProt Q9BYC5 1-575, looked up)
chain: MRPWTGSWRWIMLILFAWGTLLFYIGGHLVRDNDHRIPEGPIDQGPAIGRVRVLEEQLVKAKEQIENYKKQTRNGLGKDHEILRRRIENGAKELWFFLQSELKKLKNLEGNELQRHADEFLLDLGHHERSIMTDLYYLSQTDGAGDWREKEAKDLTELVQRRITYLQNPKDCSKAKKLVCNINKGCGYGCQLHHVVYCFMIAYGTQRTLILESQNWRYATGGWETVFRPVSETCTDRSGISTGHWSGEVKDKNVQVVELPIVDSLHPRPPYLPLAVPEDLADRLVRVHGDPAVWWVSQFVKYLIRPQPWLEKEIEEATKKLGFKHPVIGVHVRRTDKVGTEAAFHPIEEYMVHVEEHFQLLARRMQVDKKRVYLATDDPSLLKEAKTKYPNYEFISDNSISWSAGLHNRYTENSLRGVILDIHFLSQADFLVCTFSSQVCRVAYEIMQTLHPDASANFHSLDDIYYFGGQNAHNQIAIYAHQPRTADEIPMEPGDIIGVAGNHWDGYSKGVNRKLGRTGLYPSYKVREKIETVKYPTYPEAEK
notes: human FUT8; start codon to the 105th base joined to the 202nd to 1725th base of the cDNA, so that Helix 1 (Pro36-Leu67) is missing; also called Myc-tagged FUT8 Δhelix 1; source: HEK293 FUT8KO, transfected, in lysate; not shown: Myc, C-terminal, kept
B4: soluble His-FUT8 (Arg68-Lys575) (domain or fragment, human, UniProt Q9BYC5 68-575, looked up)
chain: RIPEGPIDQGPAIGRVRVLEEQLVKAKEQIENYKKQTRNGLGKDHEILRRRIENGAKELWFFLQSELKKLKNLEGNELQRHADEFLLDLGHHERSIMTDLYYLSQTDGAGDWREKEAKDLTELVQRRITYLQNPKDCSKAKKLVCNINKGCGYGCQLHHVVYCFMIAYGTQRTLILESQNWRYATGGWETVFRPVSETCTDRSGISTGHWSGEVKDKNVQVVELPIVDSLHPRPPYLPLAVPEDLADRLVRVHGDPAVWWVSQFVKYLIRPQPWLEKEIEEATKKLGFKHPVIGVHVRRTDKVGTEAAFHPIEEYMVHVEEHFQLLARRMQVDKKRVYLATDDPSLLKEAKTKYPNYEFISDNSISWSAGLHNRYTENSLRGVILDIHFLSQADFLVCTFSSQVCRVAYEIMQTLHPDASANFHSLDDIYYFGGQNAHNQIAIYAHQPRTADEIPMEPGDIIGVAGNHWDGYSKGVNRKLGRTGLYPSYKVREKIETVKYPTYPEAEK
notes: human FUT8, soluble form from Arg68 to the C terminus (Lys575); Plasmid pcDNA-IH/FUT8; also called purified soluble FUT8; recombinant soluble FUT8; source: COS7, transfected, purified from the culture medium (Ni2+ column, NAP-5 desalting)
B5: FUT8 stem (N-terminal part of FUT8, cytosolic region to stem region) fused with LgBiT or SmBiT (domain or fragment, human, UniProt Q9BYC5 1-108, looked up)
chain: MRPWTGSWRWIMLILFAWGTLLFYIGGHLVRDNDHPDHSSRELSKILAKLERLKQQNEDLRRMAESLRIPEGPIDQGPAIGRVRVLEEQLVKAKEQIENYKKQTRNGL
notes: human FUT8, 1st to 326th base of the cDNA: cytosolic region, transmembrane region and stem region (stem ends at Leu108); Two differently tagged copies of the same fragment; no chain bears both LgBiT and SmBiT; The 326th base is two bases past codon 108; also called FUT8 stem-LgBiT; FUT8 stem-SmBiT; source: HEK293 FUT8KO, transfected, in lysate; not shown: LgBiT (one copy; vector pBiT1.1-C …)
B6: FUT8Δhelix 2 (enzyme, human, UniProt Q9BYC5 1-575, looked up)
chain: MRPWTGSWRWIMLILFAWGTLLFYIGGHLVRDNDHPDHSSRELSKILAKLERLKQQNEDLRRMAESLRIPEGPIDQGPNGLGKDHEILRRRIENGAKELWFFLQSELKKLKNLEGNELQRHADEFLLDLGHHERSIMTDLYYLSQTDGAGDWREKEAKDLTELVQRRITYLQNPKDCSKAKKLVCNINKGCGYGCQLHHVVYCFMIAYGTQRTLILESQNWRYATGGWETVFRPVSETCTDRSGISTGHWSGEVKDKNVQVVELPIVDSLHPRPPYLPLAVPEDLADRLVRVHGDPAVWWVSQFVKYLIRPQPWLEKEIEEATKKLGFKHPVIGVHVRRTDKVGTEAAFHPIEEYMVHVEEHFQLLARRMQVDKKRVYLATDDPSLLKEAKTKYPNYEFISDNSISWSAGLHNRYTENSLRGVILDIHFLSQADFLVCTFSSQVCRVAYEIMQTLHPDASANFHSLDDIYYFGGQNAHNQIAIYAHQPRTADEIPMEPGDIIGVAGNHWDGYSKGVNRKLGRTGLYPSYKVREKIETVKYPTYPEAEK
notes: human FUT8; start codon to the 234th base joined to the 316th to 1725th base of the cDNA, so that Helix 2 (Ala79-Arg105) is missing; also called Myc-tagged FUT8 Δhelix 2; source: HEK293 FUT8KO, transfected, in lysate; not shown: Myc, C-terminal, kept
B7: FUT8 Y100A/R105A (enzyme, human, UniProt Q9BYC5 1-575, looked up)
chain: MRPWTGSWRWIMLILFAWGTLLFYIGGHLVRDNDHPDHSSRELSKILAKLERLKQQNEDLRRMAESLRIPEGPIDQGPAIGRVRVLEEQLVKAKEQIENAKKQTANGLGKDHEILRRRIENGAKELWFFLQSELKKLKNLEGNELQRHADEFLLDLGHHERSIMTDLYYLSQTDGAGDWREKEAKDLTELVQRRITYLQNPKDCSKAKKLVCNINKGCGYGCQLHHVVYCFMIAYGTQRTLILESQNWRYATGGWETVFRPVSETCTDRSGISTGHWSGEVKDKNVQVVELPIVDSLHPRPPYLPLAVPEDLADRLVRVHGDPAVWWVSQFVKYLIRPQPWLEKEIEEATKKLGFKHPVIGVHVRRTDKVGTEAAFHPIEEYMVHVEEHFQLLARRMQVDKKRVYLATDDPSLLKEAKTKYPNYEFISDNSISWSAGLHNRYTENSLRGVILDIHFLSQADFLVCTFSSQVCRVAYEIMQTLHPDASANFHSLDDIYYFGGQNAHNQIAIYAHQPRTADEIPMEPGDIIGVAGNHWDGYSKGVNRKLGRTGLYPSYKVREKIETVKYPTYPEAEK
notes: human FUT8 with two point mutations in Helix 2 of the stem region; also called Myc-tagged FUT8 Y100A/R105A; source: HEK293 FUT8KO, transfected, in lysate; not shown: Myc, C-terminal, kept

Key:
[1] = molecular target: T1, alpha-1,6-fucosyltransferase FUT8 WT (human, UniProt Q9BYC5 1-575); experiment: co-IP; lysates (TBS, 1% Triton X-100) of HEK293 FUT8KO cells coexpressing Myc-tagged FUT8 WT or mutant with 3xFLAG-FUT8 WT; anti-DYKDDDDK antibody magnetic beads, 4 °C overnight; anti-Myc blot; IP signal divided by input, relative to FUT8 WT; conditions: partners not purified
T1 construct: No chain bears both Myc and 3xFLAG; also called Myc-FUT8; Myc-tagged FUT8; source: HEK293 FUT8KO, transfected, in lysate; not shown: Myc (copy from pcDNA6-mycHisA), C-terminal, kept; His tag (from the vector pcDNA6-mycHisA); 3xFLAG (other copy; from pME-3xFLAG), C-terminal, kept
T1 sequence (looked up): B7 chain with A100Y, A105R

[2] = molecular target: the molecule itself; experiment: native gel or EMSA; Blue Native PAGE (4% to 16%) of purified soluble His-FUT8, Western blot with anti-FUT8
[3] = molecular target: the molecule itself; experiment: split reporter (BiFC, NanoBiT); NanoBiT; LgBiT and SmBiT fusions coexpressed in HEK293 FUT8KO cells; 0.6 μg of lysate protein (TBS, 1% Triton X-100) with Nano-Glo Live Cell Substrate at RT; luminescence relative to empty-vector (Mock) sample

Binder | coprecipitated anti-Myc signal (IP/input) relative to FUT8 WT [1] | other results
B1 | 0.122 relative to FUT8 WT | –
B2 | 0.127 relative to FUT8 WT | –
B3 | 0.0934 relative to FUT8 WT | –
B4 | – | binding result [2]: binds
B5 | – | relative luminescence (NanoBiT, relative to Mock) [3]: 165 relative to Mock
B6 | 0.5 relative to FUT8 WT | –
B7 | 1.56 relative to FUT8 WT | –
